Assay [1] addresses soluble recombinant human IGF1R hetero-tetramere with C-terminal 10-His tag (R&D Systems catalogue number 305-GR-50) (human) (UniProt P08069). Put plainly: SPR Biacore X100, Ln(2)/koff. In general terms: Surface plasmon resonance follows binding to a sensor surface in real time, without labels.
Assay [2] has the same target. Put plainly: SPR Biacore X100, His-captured h-IGF1R around 600 RU, mean of four experiments.

B1: hz208F2 VH3/VL3 (antibody, human IgG1, kappa, V domains shown)
VH: QVQLVQSGAEVKKPGASVKMSCKASGYTFTSYYIYWVKQAPGQGLEWLGWIWPGDGSTKYNEKFQGRVTLTADKSSNTAYMFLSSLRSEDTAVYFCASPMITPNYAMDYWGQGTLVTVSS
VL: DIQMTQSPSSLSASVGDRVTISCRASQDISKYLNWYQQKPGKAPKLLIYYTSRLHSGVPSRFSGRGSGTDYSLTISNLQPEDFATYFCQQGSTLPYTFGGGTKVEIKR
For the molecule B1, in assay [1], the half-life of the complex was in the range of 2 to 3 h. Moreover, the Kd in assay [2] turned out to be 0.06 nM.

One may read the Kd as the constant that tells how readily two partners part at equilibrium.

(Values after patent US20190269788A1.)
